Test results reported in patent publication US20220119534A1 (DRAGONFLY THERAPEUTICS, published 2022).

Columns and labels:
[1] = biological target: T1, human CLEC12A expressed on cells (human, UniProt Q5QGZ9 1-265); assay: flow cytometry, hCLEC12A+ Ba/F3
T1 construct: Transduced isogenic cells or endogenous expression on AML cells; also called RMA-hCLEC12A; Ba/F3-hCLEC12A
T1 sequence: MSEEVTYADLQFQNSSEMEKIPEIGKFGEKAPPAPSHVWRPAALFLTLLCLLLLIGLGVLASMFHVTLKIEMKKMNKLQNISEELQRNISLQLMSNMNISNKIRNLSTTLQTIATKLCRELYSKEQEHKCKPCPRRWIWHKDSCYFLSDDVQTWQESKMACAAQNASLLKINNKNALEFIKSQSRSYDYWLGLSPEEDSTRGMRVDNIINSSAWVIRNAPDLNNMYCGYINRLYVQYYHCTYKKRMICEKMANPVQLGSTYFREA

[2] = biological target: T1, human CLEC12A expressed on cells; assay: flow cytometry on RMA-hCLEC12A cells
[3] = biological target: T2, recombinant human CLEC12A-His (human, UniProt Q5QGZ9 65-265); assay: SPR, purified murine mAb
T2 construct: also called hCLEC12A-His; hCLEC12A
T2 sequence: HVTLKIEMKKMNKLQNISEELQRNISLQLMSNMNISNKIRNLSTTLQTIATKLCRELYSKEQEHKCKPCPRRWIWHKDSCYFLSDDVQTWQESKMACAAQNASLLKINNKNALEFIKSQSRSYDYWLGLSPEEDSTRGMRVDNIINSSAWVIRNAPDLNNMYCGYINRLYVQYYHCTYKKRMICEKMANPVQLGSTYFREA

[4] = biological target: T3, recombinant cynomolgus CLEC12A-His (cynomolgus monkey, UniProt A0A2K5WXQ4 71-271); assay: SPR, purified murine mAb
T3 construct: also called cCLEC12A-His; cCLEC12A
T3 sequence: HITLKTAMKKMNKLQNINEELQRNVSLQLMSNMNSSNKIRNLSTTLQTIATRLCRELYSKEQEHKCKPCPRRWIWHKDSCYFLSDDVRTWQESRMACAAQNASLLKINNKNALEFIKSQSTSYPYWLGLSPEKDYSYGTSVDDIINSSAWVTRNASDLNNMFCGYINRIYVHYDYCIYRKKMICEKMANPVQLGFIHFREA

[5] = biological target: T1, human CLEC12A expressed on cells; assay: flow cytometry on HL-60 cells, fold over background
Description: (§1) The cells were then incubated with a fluorophore conjugated anti-human IgG secondary antibody and were analyzed by flow cytometry. The mean fluorescence intensity (MFI) values were normalized to secondary antibody only controls to obtain fold over background (FOB) values.
(§2) 100,000 cells were seeded per well into a 96-well plate for FACS staining. Cells were washed with PBS. Cells were incubated in a 1:2000 dilution of live/dead dye in PBS for 15 minutes, then washed with FACS buffer. TriNKETs or mAbs were diluted into FACS buffer, and 50 μl containing diluted TriNKET or mAb was added to cells. Cells were incubated on ice for 20 minutes. After the incubation, cells were washed with FACS buffer. Anti-human IgG-Fc secondary antibody was diluted into FACS buffer, and 50 μl was added per well for detection of the bound TriNKETs or mAbs. Cells were incubated for 20 minutes on ice, then washed with FACS buffer. 50 μl of fixation buffer was added to each well, and cells were incubated for 10 minutes at room temperature. Cells were washed with FACS buffer and resuspended in FACS buffer for analysis with BD FACS Celesta SN #H66034400085, or BD FACS Celesta SN #H66034400160. Cells of interest were identified using FSC vs. SSC plot, and an appropriately shaped gate was drawn around the cells. Within the gated cells, doublet cells were removed by viewing FSC-H vs FSC-A plot. Within the single cell population, live cells were gated. Within the live gate, the mean fluorescence intensity (MFI) of each sample and the secondary-only control was calculated. Fold-over-background (FOB) was calculated as the ratio of test article MFI over secondary-only background MFI. Data were fit to a four-parameter non-linear regression curve using GraphPad Prism 7.0.

[6] = biological target: T1, human CLEC12A expressed on cells; assay: flow cytometry on Ba/F3-hCLEC12A cells, fold over background
Description: as §1, §2

[7] = biological target: T4, Human CLEC12A expressed on cells (Ba/F3-hCLEC12A, PL21, HL60) (human, UniProt Q5QGZ9 1-265); assay: cell-based or functional assay
T4 sequence: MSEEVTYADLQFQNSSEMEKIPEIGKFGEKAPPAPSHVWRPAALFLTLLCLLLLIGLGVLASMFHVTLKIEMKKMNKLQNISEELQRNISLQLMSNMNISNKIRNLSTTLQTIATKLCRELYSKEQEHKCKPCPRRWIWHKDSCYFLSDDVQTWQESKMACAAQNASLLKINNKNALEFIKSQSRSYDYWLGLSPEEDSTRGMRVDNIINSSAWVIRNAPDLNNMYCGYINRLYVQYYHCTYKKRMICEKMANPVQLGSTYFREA

[8] = biological target: T4, Human CLEC12A expressed on cells …; assay: cell-based or functional assay; remark: listed apart in the source
[9] = biological target: T1, human CLEC12A expressed on cells; assay: flow cytometry on PL-21 cells, fold over background
Description: as §1
100,000 cells were seeded per well into a 96-well plate for FACS staining. Cells were washed with PBS. Cells were incubated in a 1:2000 dilution of live/dead dye in PBS for 15 minutes, then washed with FACS buffer. TriNKETs or mAbs were diluted into FACS buffer, and 50 μl containing diluted TriNKET or mAb was added to cells. Cells were incubated on ice for 20 minutes. After the incubation, cells were washed with FACS buffer. Anti-human IgG-Fc secondary antibody was diluted into FACS buffer, and 50 μl was added per well for detection of the bound TriNKETs or mAbs. Cells were incubated for 20 minutes on ice, then washed with FACS buffer. 50 μl of fixation buffer was added to each well, and cells were incubated for 10 minutes at room temperature. […] Within the live gate, the mean fluorescence intensity (MFI) of each sample and the secondary-only control was calculated. Fold-over-background (FOB) was calculated as the ratio of test article MFI over secondary-only background MFI. […]

[10] = biological target: T2, recombinant human CLEC12A-His; assay: SPR screening, semi-purified
Description: Binding affinities of the 18 semi-purified TriNKETs for hCLEC12A were assessed by SPR in screening.

B1: hcFAE-A49.CLL1-Merus (bispecific antibody, V domains shown)
VH 1: EVQLVQSGAEVKKPGASVKVSCKASGYTFTSYYMHWVRQAPGQGLEWMGIINPSGGSTSYAQKFQGRVTMTRDTSTSTVYMELSSLRSEDTAVYYCARGNYGDEFDYWGQGTLVTVSS
VL 1: not shown
VH 2: EVQLVESGGGLVKPGGSLRLSCAASGFTFSSYSMNWVRQAPGKGLEWVSSISSSSSYIYYADSVKGRFTISRDNAKNSLYLQMNSLRAEDTAVYYCARGAPMGAAAGWFDPWGQGTLVTVSS
VL 2: DIQMTQSPSSVSASVGDRVTITCRASQGISSWLAWYQQKPGKAPKLLIYAASSLQSGVPSRFSGSGSGTDFTLTISSLQPEDFATYYCQQGVSFPRTFGGGTKVEIK
notes: Duobody TriNKET: CLEC12A Fab of Merus CLL1 and NKG2D Fab A49; also called hcFAE-A49.CLL-Merus; control CLEC12A-TriNKET
In the case of B1, the EC50 [1] is reported as 14.3 nM, the “Max MFI” value [1] is reported as 39700 MFI and the “EC50 (read off the curve)” value [2] is reported as ~3 nM.

B2: 15A10.G8 (antibody, V domains shown)
VH: EVQLQESGAELVRSGASIKLSCAASAFNIKDYFIHWVRQRPDQGLEWIGWIDPENDDTEYAPKFQDKATMTADTSSNTAYLQLSSLTSADTAVYYCNALWSRGGYFDYWGQGTTLTVSS
VL: EVLLTQSPAIIAASPGEKVTITCSARSSVSYMSWYQQKPGSSPKIWIYGISKLASGVPARFSGSGSGTYFSFTINNLEAEDVATYYCQQRSYYPFTFGSGTKLEIK
notes: Murine mAb
For B2, the Kd [3] was 1.6 nM, the koff [3] was 0.000494 s⁻¹ and the kon [3] was 301000 M⁻¹ s⁻¹. For the same binder, the Kd [4] was 3.3 nM, the koff [4] was 0.000659 s⁻¹ and the kon [4] was 196000 M⁻¹ s⁻¹.

B3: AB0306 (antibody, IgG1, V domains shown)
VH: EVQLVESGGGVVQPGGSLRLSCAASGFTFNAFGMHWVRQAPGKGLEWVAFISSGSTSIYYANTVKGRFTISRDNSKNTLYLQMNSLRAEDTAVYYCARDGYPTGGAMDYWGQGTSVTVSS
VL: DIQMTQSPSSLSASVGDRVTITCKASQDIYNYLSWFQQKPGKAPKPLIYRANILVSGVPSRFSGSGSGQDYTFTISSLQPEDIATYYCLQFDAFPFTFGSGTKLEIK
notes: hIgG1 mAb; also called Humanized 1797 anti-CLEC12A mAb; parental mAb of AB0192
In the case of B3, the “EC50 (read off the curve)” value [5] is reported as ~0.5 nM and the “EC50 (read off the curve)” value [6] is reported as ~0.8 nM.

B4: AB0305 mAb (Humanized 1739 anti-CLEC12A mAb) (antibody, V domains shown)
VH: QLQLQESGPGLVKPSETLSLTCTVSGFSLTNYGLHWIRQPPGKGLEWIGVIWVGGATDYNPSLKSRVTISVDTSKNQFSLKLSSVQAADTAVYYCAKGDYGDTLDYWGQGTLVTVSS
VL: DIQMTQSPSSLSASVGDRVTITCHASQNINFWLSWYQQKPGKAPKLLIYEASNLHTGVPSRFSGSGSGTDFTLTISSLQPEDFATYYCQQSHSYPLTFGSGTKLEIK
For B4, the “EC50, primary NK mediated cytotoxic killing of PL21 cells” value [7] was 1.85 nM, the “% Max, ADCP activity of M0 macrophages against PL21 cells” value [8] was 10% and the “EC50, ADCP activity of M0 macrophages against PL21 cells” value [8] was 0.02 nM.

B5: AB0305 (antibody, IgG1, V domains shown)
VH: QLQLQESGPGLVKPSETLSLTCTVSGFSLTNYGLHWIRQPPGKGLEWIGVIWVGGATDYNPSLKSRVTISVDTSKNQFSLKLSSVQAADTAVYYCAKGDYGDTLDYWGQGTLVTVSS
VL: DIQMTQSPSSLSASVGDRVTITCHASQNINFWLSWYQQKPGKAPKLLIYEASNLHTGVPSRFSGSGSGTDFTLTISSLQPEDFATYYCQQSHSYPLTFGSGTKLEIK
notes: hIgG1 mAb; also called Humanized 1739 anti-CLEC12A mAb; parental mAb of AB0089
With B5 the “EC50 (read off the curve)” value [5] was ~0.1 nM and the “EC50 (read off the curve)” value [6] was ~0.6 nM.

B6: AB0300 (other, name in EU numbering)
chain: QLQLQESGPGLVKPSETLSLTCTVSGFSLTNYGLHWIRQPPGKCLEWIGVIWSGGKTDYNPSLKSRVTISKDTSKNQFSLKLSSVQAADTAVYYCAKYDYDDSLDYWGQGTLVTVSSGGGGSGGGGSGGGGSGGGGSDIQMTQSPSSLSASVGDRVTITCHASQNINFWLSWYQQKPGKAPKLLIYEASNLHTGVPSRFSGSGSGTRFTLTISSLQPEDIATYYCQQSHSYPLTFGCGTKLEIKGSDKTHTCPPCPAPEAAGGPSVFLFPPKPKDTLMISRTPEVTCVVVDVSHEDPEVKFNWYVDGVEVHNAKTKPREEQYNSTYRVVSVLTVLHQDWLNGKEYKCKVSNKALGAPIEKTISKAKGQPREPRVYTLPPCRDELTKNQVSLTCLVKGFYPSDIAVEWESNGQPENNYKTTPPVLVSDGSFTLYSKLTVDKSRWQQGNVFSCSVMHEALHNHYTQKSLSLSPG
heavy: EVQLVESGGGLVKPGGSLRLSCAASGFTFSSYSMNWVRQAPGKGLEWVSSISSSSSYIYYADSVKGRFTISRDNAKNSLYLQMNSLRAEDTAVYYCARGAPIGAAAGWFDPWGQGTLVTVSSASTKGPSVFPLAPSSKSTSGGTAALGCLVKDYFPEPVTVSWNSGALTSGVHTFPAVLQSSGLYSLSSVVTVPSSSLGTQTYICNVNHKPSNTKVDKKVEPKSCDKTHTCPPCPAPEAAGGPSVFLFPPKPKDTLMISRTPEVTCVVVDVSHEDPEVKFNWYVDGVEVHNAKTKPREEQYNSTYRVVSVLTVLHQDWLNGKEYKCKVSNKALGAPIEKTISKAKGQPREPQVCTLPPSRDELTENQVSLTCLVKGFYPSDIAVEWESNGQPENNYKTTPPVLDSDGSFFLYSWLTVDKSRWQQGNVFSCSVMHEALHNHYTQKSLSLSPG
light: DIQMTQSPSSVSASVGDRVTITCRASQGISSWLAWYQQKPGKAPKLLIYAASSLQSGVPSRFSGSGSGTDFTLTISSLQPEDFATYYCQQGVSFPRTFGGGTKVEIKRTVAAPSVFIFPPSDEQLKSGTASVVCLLNNFYPREAKVQWKVDNALQSGNSQESVTEQDSKDSTYSLSSTLTLSKADYEKHKVYACEVTHQGLSSPVTKSFNRGEC
notes: AB0237 with LALAPG in both Fc chains
For B6, the “EC50 (read off the curve)” value [9] was ~2 nM.

B7: F3'-1304 (other)
chain: DIQMTQSPSSLSASVGDRVTITCHASQNINFWLSWYQQKPGKIPKLLIYEASNLHTGVPSRFSGSGSGTRFTLTISSLQPEDIATYYCQQSHSYPLTFGCGTKLEIKGGGGSGGGGSGGGGSGGGGSQLQLQESGPGLVKPSETLSLTCTVSGFSLTNYGLHWIRQPPGKCLEWIGVIWSGGKTDYNPSLKSRVTISKDTSKNQFSLKLSSVQAADTAVYYCAKYDYDDSLDYWGQGTLVTVSSGSDKTHTCPPCPAPELLGGPSVFLFPPKPKDTLMISRTPEVTCVVVDVSHEDPEVKFNWYVDGVEVHNAKTKPREEQYNSTYRVVSVLTVLHQDWLNGKEYKCKVSNKALPAPIEKTISKAKGQPREPRVYTLPPCRDELTKNQVSLTCLVKGFYPSDIAVEWESNGQPENNYKTTPPVLVSDGSFTLYSKLTVDKSRWQQGNVFSCSVMHEALHNHYTQKSLSLSPG
heavy: EVQLVESGGGLVKPGGSLRLSCAASGFTFSSYSMNWVRQAPGKGLEWVSSISSSSSYIYYADSVKGRFTISRDNAKNSLYLQMNSLRAEDTAVYYCARGAPIGAAAGWFDPWGQGTLVTVSSASTKGPSVFPLAPSSKSTSGGTAALGCLVKDYFPEPVTVSWNSGALTSGVHTFPAVLQSSGLYSLSSVVTVPSSSLGTQTYICNVNHKPSNTKVDKKVEPKSCDKTHTCPPCPAPELLGGPSVFLFPPKPKDTLMISRTPEVTCVVVDVSHEDPEVKFNWYVDGVEVHNAKTKPREEQYNSTYRVVSVLTVLHQDWLNGKEYKCKVSNKALPAPIEKTISKAKGQPREPQVCTLPPSRDELTENQVSLTCLVKGFYPSDIAVEWESNGQPENNYKTTPPVLDSDGSFFLYSWLTVDKSRWQQGNVFSCSVMHEALHNHYTQKSLSLSPG
light: DIQMTQSPSSVSASVGDRVTITCRASQGISSWLAWYQQKPGKAPKLLIYAASSLQSGVPSRFSGSGSGTDFTLTISSLQPEDFATYYCQQGVSFPRTFGGGTKVEIKRTVAAPSVFIFPPSDEQLKSGTASVVCLLNNFYPREAKVQWKVDNALQSGNSQESVTEQDSKDSTYSLSSTLTLSKADYEKHKVYACEVTHQGLSSPVTKSFNRGEC
notes: As F3'-1292
In the case of B7, the “EC50 (read off the curve)” value [2] is reported as ~10 nM, the Kd [10] is reported as 2.7 nM and the koff [10] is reported as 0.0013 s⁻¹. For the same binder, the kon [10] was 480000 M⁻¹ s⁻¹.
